Here are results for one substance from PMC8163506, “A novel ATP dependent dimethylsulfoniopropionate lyase in bacteria that releases dimethyl sulfide and acryloyl-CoA” (eLife, 2021).

The assay deals with DddX (ATP-dependent DMSP lyase) of Psychrobacter sp. D2, recombinant (Psychrobacter sp. D2). Description: SEC; gel filtration of purified DddX against molecular mass standards (semilog plot of mass versus Kav).

The stoichiometry N is the number of molecules, sites or subunits per partner or assembly. On to “DddX (ATP-dependent DMSP lyase) of Psychrobacter sp. D2, recombinant (enzyme)”, for which the stoichiometry N was 2.
